From patent US20250136678A1 (BIOSION, published 2025)

How the values were obtained:
[1] = molecular target: T1, human CLDN18.2 (NP_001002026.1) (human, UniProt P56856-2 1-261); assay: cell-based binding FACS on BAF3-CLDN18.2 cells, MFI against Con of mAb, nM is the unit of the x axis; the curve levels off near MFI 600
T1 construct: whole, on cells; KATO III cells also served as target cells in the ADCC assay; also called Claudin18.2; Claudin-18 splice variant 2
Protocol: (§1) The BAF3-CLDN18.2, BAF3-CLDN18.1 and BAF3 cells were harvested, washed twice and re-suspended in phosphate buffered saline (PBS) containing 2% v/v Fetal Bovine Serum (FACS buffer), BAF3 cells were used here as blank control. The cells, 1×10⁵ per well, were incubated in 96 well-plates with 100 μl serially diluted antibodies or controls (starting from 10 μg/mL, 5-fold serial dilution) in FACS buffer for 50 minutes on ice. […] Following an incubation of 50 minutes at 4° C. in dark, cells were washed three times and re-suspended in FACS buffer. Fluorescence was measured using a Becton Dickinson FACS Canto II-HTS equipment, and the MFI (mean fluorescence intensity) was plotted against antibody concentration. Data was analyzed using Graphpad Prism and EC₅₀ values were reported.

[2] = molecular target: T1, human CLDN18.2 (NP_001002026.1); assay: cell-based binding FACS on BAF3-CLDN18.2 cells; y axis unlabelled, nM is the unit of the x axis; the curve reaches only about 800 at the last point
Protocol: as §1

[3] = molecular target: T1, human CLDN18.2 (NP_001002026.1); assay: cell-based binding FACS on BAF3-CLDN18.2 cells, MFI against Con of mAb, nM is the unit of the x axis; low curve reaching only MFI about 300-400 at the last point
Protocol: as §1

[4] = molecular target: T1, human CLDN18.2 (NP_001002026.1); assay: cell-based binding FACS on BAF3-CLDN18.2 cells, MFI against Con of mAb, nM is the unit of the x axis; low curve (open down-triangles) reaching only MFI about 400-500
Protocol: as §1

[5] = molecular target: T1, human CLDN18.2 (NP_001002026.1); assay: cell-based blocking FACS on BAF3-CLDN18.2 cells; unlabeled Zolbetuximab against biotin labeled Zolbetuximab, SA-PE detection, nM is the unit of the x axis; signal falls only from about 870 to about 600 at the last point, no lower plateau is reached
Protocol: The anti-CLDN18.2 antibodies of the disclosure, and the controls were diluted with FACS buffer starting from 10 μg/mL with 5-fold serial dilution. BAF3-CLDN18.2 cells were harvested from cell culture flasks at the log phase, washed twice and re-suspended in PBS containing 2% v/v Fetal Bovine Serum (FACS buffer). […] Then the cells were washed twice with FACS buffer, added with 100 μl/well SA-PE (1:200 dilution in FACS buffer, Cat #:016-110-084, Jackson Immunoresearch), and incubated for 40 minutes at 4° C. in dark. Cells were washed twice and re-suspended in FACS buffer. Fluorescence was measured using a Becton Dickinson FACS Canto II-HTS equipment. Data was analyzed using Graphpad Prism and IC₅₀ values were reported.

B1: Zolbetuximab (antibody, human IgG1, kappa, V domains shown)
VH: QVQLQQPGAELVRPGASVKLSCKASGYTFTSYWINWVKQRPGQGLEWIGNIYPSDSYTNYNQKFKDKATLTVDKSSSTAYMQLSSPTSEDSAVYYCTRSWRGNSFDYWGQGTTLTVSS
VL: DIVMTQSPSSLTVTAGEKVTMSCKSSQSLLNSGNQKNYLTWYQQKPGQPPKLLIYWASTRESGVPDRFTGSGSGTDFTLTISSVQAEDLAVYYCQNDYSYPFTFGSGTKLEIKR
notes: also called IMAB362; Benchmark
- EC50 [1]: 2.44 nM
- EC50 [2]: 11 nM
- EC50 [3]: 5.48 nM
- EC50 [4]: 4.67 nM
- IC50 [5]: 17.3 nM
